# Target: HPV16 pseudovirions (human papillomavirus type 16) (UniProt P03101)
row,Substance,IC50 of inhibition of HPV16 PsV infection of HeLa cells (PsV pretreated with the defensin) [µM]
1,RTD-4 (from UniProt P82270 65-76) (peptide),101
2,Rhesus Theta Defensin-1 (from UniProt P82270 65-76; P82271 65-76) (peptide),14
3,α-defensin HD5 (peptide),26
